Literature values, collected in article PMC5141497.
Like-named read-outs stand apart in the source and are kept apart here.

What was measured:
[1] = biological target: Did2 MIM1 (Saccharomyces cerevisiae) (UniProt P69771)
[2] = biological target: Did2 MIM1 (Saccharomyces cerevisiae) (UniProt P69771); remark: listed apart in the source
[3] = biological target: Vps2 MIM1 (Saccharomyces cerevisiae) (UniProt P36108)
Chain of Vps2 MIM1 (Saccharomyces cerevisiae) (P36108 183-232): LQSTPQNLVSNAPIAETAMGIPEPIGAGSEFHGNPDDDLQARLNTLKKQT

Chain of Vps4 MIT (P52917 1-83): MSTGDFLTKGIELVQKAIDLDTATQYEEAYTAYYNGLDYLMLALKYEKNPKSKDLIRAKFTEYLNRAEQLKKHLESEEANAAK
Chain of Did2 MIM1 (Saccharomyces cerevisiae) (P69771 176-204): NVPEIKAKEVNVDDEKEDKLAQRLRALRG
Chain of Ist1 NTD (P53843 1-193): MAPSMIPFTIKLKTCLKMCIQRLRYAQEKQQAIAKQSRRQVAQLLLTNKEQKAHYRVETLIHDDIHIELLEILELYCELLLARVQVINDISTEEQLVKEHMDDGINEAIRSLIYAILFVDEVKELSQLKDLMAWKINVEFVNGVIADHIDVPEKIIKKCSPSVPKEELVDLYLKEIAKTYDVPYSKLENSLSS

Kd [1] [µM]	Kd [2] [µM]	Kd [3] [µM]	Substance
1			Ist1 NTD (from UniProt P53843)
	39	28	Vps4 MIT (from UniProt P52917)
